Laboratory results taken from article PMC9172573, “Covalent labeling of a chromatin reader domain using proximity-reactive cyclic peptides†” (Chemical Science, 2022).
Square brackets hold non-standard residues; d marks the D form. Ends that are not written are not given here. Peptide text beside a SMILES is read from it. Lys(Me3) = C[N+](C)(C)CCCC[C@H](N)C(=O)O; fluorescent label = not defined here; Arg(Me) = CNC(=N)NCCC[C@H](N)C(=O)O; Aib = CC(C)(N)C(=O)O; Me3 = trimethyl

What was measured:
[1] = biological target: His6-MBP-PHD3 (PHD3 domain of histone demethylase KDM5A) (UniProt P29375); test: fluorescence polarisation; competition: recombinant His6-MBP-PHD3 incubated with the 10mer H3K4me3 tracer (C-terminal fluorescent label), then varying concentrations of the competing peptide; Ki
[2] = biological target: His6-MBP-PHD3 (PHD3 domain of histone demethylase KDM5A) (UniProt P29375); test: FP
trypsin = trypsin stability assay; type: in vitro ADME; settings: peptide and trypsin 1:1 w/w, 1x PBS, RT, HPLC
Protocol: Trypsin stability assay: Peptide and trypsin (1:1 w/w) were mixed in 1x PBS buffer and the resulting mixture was incubated at RT. Proteolysis reactions at a given time point was quenched by adding HCl. The proteolysis process was monitored by subjecting the quenched mixture onto r everse-phase HPLC column monitoring at 2 14 nm [H2O (A):MeCN (B); 5% to 100% solvent B over 23 min].
Fig. S2a: Chromatograms of WT H3K4me3 hexapeptide ( 1) before and after incubation with trypsin ( t = < 5 min).
(1 picture or pasted object on this page, not shown here)

[3] = oxyguanidino / guanidino side-chain group; cited from earlier work
[4] = biological target: recombinant His6-MBP-PHD3 (PHD3 domain of KDM5A) (Homo sapiens, UniProt P29375)
[5] = biological target: T1, His6-MBP-PHD3 (PHD3 domain of histone demethylase KDM5A) (UniProt P29375 1609-1659); test: FP
T1 chain: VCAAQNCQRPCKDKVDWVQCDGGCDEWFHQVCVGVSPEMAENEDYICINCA

[6] = biological target: T1, His6-MBP-PHD3 (PHD3 domain of histone …); test: FP
[7] = biological target: T2, His6-MBP-PHD3 (PHD3 domain of histone demethylase KDM5A) (UniProt P29375 1609-1659); test: fluorescence polarisation; competition: recombinant His6-MBP-PHD3 incubated with the 10mer H3K4me3 tracer (C-terminal fluorescent label), then varying concentrations of the competing peptide; Ki; settings: both partners purified
T2 construct: KDM5A, third (C-terminal) PHD finger, PHD3; holds K1620, K1622, W1625, W1635; also called recombinant His6-MBP-PHD3 protein; KDM5A-PHD3; source: recombinant; not shown: His6, N-terminal, kept; MBP, N-terminal, kept
T2 sequence: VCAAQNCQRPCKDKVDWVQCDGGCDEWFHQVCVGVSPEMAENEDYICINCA

[8] = biological target: T3, PHD3 double mutant K1620A/K1622A (UniProt P29375 1609-1659, K1620A | K1622A); test: FP
T3 sequence: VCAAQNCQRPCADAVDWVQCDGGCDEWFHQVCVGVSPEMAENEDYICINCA

[9] = biological target: T1, His6-MBP-PHD3 (PHD3 domain of histone …); test: FP
PHD3 K1620A = biological target: T4, PHD3 K1620A (UniProt P29375 1609-1659, K1620A); test: FP
T4 sequence: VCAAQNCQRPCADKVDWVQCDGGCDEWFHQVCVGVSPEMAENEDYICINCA

PHD3 K1622A = biological target: T5, PHD3 K1622A (UniProt P29375 1609-1659, K1622A); test: FP
T5 sequence: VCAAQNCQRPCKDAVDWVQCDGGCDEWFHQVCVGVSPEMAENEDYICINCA

## H3 6mer peptide 14 (K4me3 replaced with homo-arginine) (from UniProt P68431 2-7)
[1]
  Ki: 690 nM

## H3K4me3 6mer peptide 4 (A1 sidechain modified) (from UniProt P68431 2-7)
[2]
  Ki: 12000 nM

## C[C@H](N)C(=O)N[C@@H](CCCNC(=N)N)C(=O)N[C@H](C(=O)N[C@@H](CCCC[N+](C)(C)C)C(=O)N[C@@H](CCC(N)=O)C(=O)N[C@H](C(N)=O)[C@@H](C)O)[C@@H](C)O [compound 1, ARTK(me3)QT] (H-ART[Lys(Me3)]QT-NH2)
trypsin
  tryptic stability: highly susceptible to tryptic digestion

## N=C(N)NOCC[C@H](N)C(=O)O [canavanine]
[3]
  pKa: 7.01

## H3K4me3 6mer peptide 8 (R2 replaced with canavanine) (from UniProt P68431 2-7)
[1]
  Ki: 2300 nM

## C[C@@H](O)[C@H](NC(=O)[C@H](CCC(N)=O)NC(=O)[C@H](CCCC[N+](C)(C)C)NC(=O)[C@@H](NC(=O)[C@H](CCCNC(=N)N)NC(=O)[C@@H](N)CO)[C@@H](C)O)C(N)=O [compound 5] (H-SRT[Lys(Me3)]QT-NH2)
[4]
  Ki: 1700 ± 300 nM

## C[C@H](N)C(=O)N[C@@H](CCCNC(=N)N)C(=O)N[C@H](C(=O)N[C@@H](CCCC[N+](C)(C)C)C(=O)N[C@@H](CCC(N)=O)C(=O)N[C@@H](C)C(=O)N[C@@H](C)C(=O)N[C@@H](CCCNC(=N)N)C(=O)N[C@@H](CCCCN)C(=O)N[C@@H](CO)C(N)=O)[C@@H](C)O [T6A]
[4]
  Ki: 150 ± 47 nM

## H3K4me3 6mer peptide 9 (R2 replaced with homo-arginine) (from UniProt P68431 2-7)
[1]
  Ki: 740 nM

## NC(N)=NCCCC[C@H](N)C(=O)O [homo-arginine]
[3]
  pKa: ~12.48

## N=C(N)NCCC[C@H](N)C(=O)O [arginine]
[3]
  pKa: ~12.48

## C[C@@H](O)[C@H](NC(=O)[C@H](CCC(N)=O)NC(=O)[C@H](CCCC[N+](C)(C)C)NC(=O)[C@@H](NC(=O)[C@H](CCCNC(=N)N)NC(=O)[C@@H]1CCCN1)[C@@H](C)O)C(N)=O [compound 6] (H-PRT[Lys(Me3)]QT-NH2)
[4]
  Ki: 2700 ± 640 nM

## [Aib]RT[Lys(Me3)]QT [2-aminoisobutyric acid-containing peptide 7]
[5]
  Ki: 310 nM

## ART[Lys(Me3)]QTARKA [S10A]
[6]
  Ki: 12 nM

## ART[Lys(Me3)]YT [H3K4me3 6mer peptide 15 (Q5 replaced with tyrosine)]
[5]
  Ki: 440 nM

## ARTK(Me3)QT [hexapeptide ARTK(me3)QT (1)]
[7]
  Ki: 130 nM

B1: sulfone cyclopeptide C-20c (peptide, UniProt P68431 2-7, looked up)
peptide: ARTKQC
modifications: not fully specified; Cys at 6; ε-amino group of dimethyllysine 4 stapled to the Cys6 sulfur with 1,2-bis(bromomethyl)benzene, thioether oxidised to the sulfone
notes: Full-length, cleaved form of intermediate C-20; also called series C; source: synthetic peptide, Fmoc-SPPS on Rink amide resin
[7]
  fold decrease in binding affinity (against the thioether C-18c, as read): 5 fold

## AAT[Lys(Me3)]QTARKS [H3K4me3 10mer peptide, R2 replaced with Ala]
[6]
  Ki: 560 nM

## Me-ART[Lys(Me3)]QT [N-terminally methylated H3K4me3 6mer peptide (3)]
[5]
  Ki: 150 nM

## ARTAQTARKS [H3 10mer peptide, K4 replaced with Ala]
[6]
  Ki: 30000 nM

## ART[Lys(Me3)]QTARK (not fully specified) [9mer]
[6]
  Ki: 15 nM

## ART[Lys(Me3)]QTARAS [K9A]
[6]
  Ki: 28 nM

## ART[Lys(Me3)]QTARKS-{fluorescent label} (reading uncertain) [10mer H3K4me3 tracer containing a C-terminal fluorescent label]
[8]
  Kd: 71 nM
[9]
  Kd: 83 nM
PHD3 K1620A
  Kd: 58 nM
PHD3 K1622A
  Kd: 160 nM

## ART[Lys(Me3)]QTAAKS [R8A]
[6]
  Ki: 69 nM

## A[Arg(Me)]T[Lys(Me3)]QT [H3K4me3 6mer peptide 10 (R2 guanidino group monomethylated)]
[5]
  Ki: 220 nM

## ART[Lys(Me3)] (not fully specified) [4mer]
[6]
  Ki: 2700 nM

## ART[Lys(Me3)]QTAR (not fully specified) [8mer]
[6]
  Ki: 54 nM

## ARV[Lys(Me3)]QT [H3K4me3 6mer peptide 13 (T3V)]
[5]
  Ki: 240 nM

## Ac-ART[Lys(Me3)]QT [N-terminally acetylated H3K4me3 6mer peptide (2)]
[5]
  Ki: 76000 nM

## ART[Lys(Me3)]QTA (not fully specified) [7mer]
[6]
  Ki: 43 nM

## ARA[Lys(Me3)]QTARKS [H3K4me3 10mer peptide, T3 replaced with Ala]
[6]
  Ki: 650 nM

## ART[Lys(Me3)]ATARKS [H3K4me3 10mer peptide Q5A]
[6]
  Ki: 59 nM
